Reference: publication PMC7720213, “Structure of eukaryotic DNA polymerase δ bound to the PCNA clamp while encircling DNA” (Proceedings of the National Academy of Sciences of the …, 2020)

T1: S.c. DNA polymerase δ catalytic subunit Pol3 with the D321S and E323S mutations in the exonuclease active site (S. cerevisiae, UniProt P15436 1-1097, D321S | E323S)
T1 construct: Pol3, catalytic subunit of Saccharomyces cerevisiae DNA polymerase δ; carries a 4Fe-4S cluster (CysB) and a zinc finger (CysA); Stood in the assay as part of the three-subunit Pol δ; also called catalytic subunit of Pol δ^exo-
T1 sequence: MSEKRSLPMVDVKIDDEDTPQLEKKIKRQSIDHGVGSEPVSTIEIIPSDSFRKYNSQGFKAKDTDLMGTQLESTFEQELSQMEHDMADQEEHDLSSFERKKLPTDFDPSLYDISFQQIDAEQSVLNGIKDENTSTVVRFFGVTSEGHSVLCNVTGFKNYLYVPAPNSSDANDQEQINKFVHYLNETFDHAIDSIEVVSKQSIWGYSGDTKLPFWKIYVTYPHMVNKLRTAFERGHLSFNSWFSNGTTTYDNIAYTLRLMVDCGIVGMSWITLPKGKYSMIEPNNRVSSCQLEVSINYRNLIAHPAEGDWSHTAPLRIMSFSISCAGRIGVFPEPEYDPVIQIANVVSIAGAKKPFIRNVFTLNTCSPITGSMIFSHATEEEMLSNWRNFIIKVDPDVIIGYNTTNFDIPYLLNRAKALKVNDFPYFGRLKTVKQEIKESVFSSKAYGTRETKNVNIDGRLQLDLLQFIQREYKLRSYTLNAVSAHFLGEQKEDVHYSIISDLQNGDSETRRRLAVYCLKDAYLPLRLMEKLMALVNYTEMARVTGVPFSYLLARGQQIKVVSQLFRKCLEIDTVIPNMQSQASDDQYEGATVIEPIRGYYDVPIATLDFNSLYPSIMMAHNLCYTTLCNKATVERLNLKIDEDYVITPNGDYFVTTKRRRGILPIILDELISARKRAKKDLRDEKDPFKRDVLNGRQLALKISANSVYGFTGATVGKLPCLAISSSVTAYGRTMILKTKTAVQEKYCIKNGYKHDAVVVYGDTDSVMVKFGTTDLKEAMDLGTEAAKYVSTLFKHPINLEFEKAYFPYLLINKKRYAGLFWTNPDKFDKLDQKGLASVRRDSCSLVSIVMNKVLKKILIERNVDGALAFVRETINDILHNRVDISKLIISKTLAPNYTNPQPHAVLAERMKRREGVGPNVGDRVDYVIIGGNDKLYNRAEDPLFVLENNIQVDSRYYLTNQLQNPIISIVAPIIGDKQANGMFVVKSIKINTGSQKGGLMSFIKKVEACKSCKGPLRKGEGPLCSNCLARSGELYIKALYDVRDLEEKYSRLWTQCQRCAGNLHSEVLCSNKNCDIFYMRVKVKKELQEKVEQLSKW

B1: 62-mer ssDNA (ssDNA)
DNA: ATGCTTAGCCTGAGGACTATTCTACTTAACGCGAGTTACGTGACGGTATCTTATCCGGCGC
B2: S.c. proliferating cell nuclear antigen (PCNA) sliding clamp (natural protein, S. cerevisiae)
chain: MLEAKFEEASLFKRIIDGFKDCVQLVNFQCKEDGIIAQAVDDSRVLLVSLEIGVEAFQEYRCDHPVTLGMDLTSLSKILRCGNNTDTLTLIADNTPDSIILLFEDTKKDRIAEYSLKLMDIDADFLKIEELQYDSTLSLPSSEFSKIVRDLSQLSDSINIMITKETIKFVADGDIGSGSVIIKPFVDMEHPETSIKLEMDQPVDLTFGAKYLLDIIKGSSLSDRVGIRLSSEAPALFQFDLKSGFLQFFLAPKFNDEE
notes: PCNA of Saccharomyces cerevisiae, homotrimeric ring; also called PCNA clamp; PCNA trimer; source: purified
B3: S.c. DNA polymerase δ regulatory subunit Pol32 (natural protein, S. cerevisiae)
chain: MDQKASYFINEKLFTEVKPVLFTDLIHHLKIGPSMAKKLMFDYYKQTTNAKYNCVVICCYKDQTIKIIHDLSNIPQQDSIIDCFIYAFNPMDSFIPYYDIIDQKDCLTIKNSYELKVSESSKIIERTKTLEEKSKPLVRPTARSKTTPEETTGRKSKSKDMGLRSTALLAKMKKDRDDKETSRQNELRKRKEENLQKINKQNPEREAQMKELNNLFVEDDLDTEEVNGGSKPNSPKETDSNDKDKNNDDLEDLLETTAEDSLMDVPKIQQTKPSETEHSKEPKSEEEPSSFIDEDGYIVTKRPATSTPPRKPSPVVKRALSSSKKQETPSSNKRLKKQGTLESFFKRKAK
notes: Pol32, regulatory subunit of Saccharomyces cerevisiae DNA polymerase δ; Stood in the assay as part of the three-subunit Pol δ
B4: T/P DNA (38-nt template / 25-nt primer) (dsDNA)
DNA 1: CTGCACGAATTAAGCAATTCGTAATCATGGTCATAGCT
DNA 2: AGCTATGACCATGATTACGAATTGC
modifications: primer 3'-terminal dideoxy-C
B5: S.c. DNA polymerase δ regulatory subunit Pol31 (natural protein, S. cerevisiae)
chain: MDALLTKFNEDRSLQDENLSQPRTRVRIVDDNLYNKSNPFQLCYKKRDYGSQYYHIYQYRLKTFRERVLKECDKRWDAGFTLNGQLVLKKDKVLDIQGNQPCWCVGSIYCEMKYKPNVLDEVINDTYGAPDLTKSYTDKEGGSDEIMLEDESGRVLLVGDFIRSTPFITGVVVGILGMEAEAGTFQVLDICYPTPLPQNPFPAPIATCPTRGKIALVSGLNLNNTSPDRLLRLEILREFLMGRINNKIDDISLIGRLLICGNSVDFDIKSVNKDELMISLTEFSKFLHNILPSISVDIMPGTNDPSDKSLPQQPFHKSLFDKSLESYFNGSNKEILNLVTNPYEFSYNGVDVLAVSGKNINDICKYVIPSNDNGESENKVEEGESNDFKDDIEHRLDLMECTMKWQNIAPTAPDTLWCYPYTDKDPFVLDKWPHVYIVANQPYFGTRVVEIGGKNIKIISVPEFSSTGMIILLDLETLEAETVKIDI
notes: Pol31 (B subunit), regulatory subunit of Saccharomyces cerevisiae DNA polymerase δ; Stood in the assay as part of the three-subunit Pol δ; also called B subunit

Tests used:
Pol31-Pol32 complex = Pol31-Pol32 complex (Saccharomyces cerevisiae, UniProt P46957;P47110 1-487;1-350); test: EMSA; 5 mM Mg2+; 0-5 uM protein, 0.5 nM DNA; EMSA: 50 mM Hepes pH 7.5, 5 mM MgCl2, 50 mM NaOAc, 1 mM DTT, 6% glycerol, 90 min at room temperature; 8% native PAGE in 40 mM Tris, 150 mM glycine pH 8.0; conditions: protein: recombinant; tags: GST tag removed with PreScission protease; copies: 1;1; label: 5'-32P; single strand
[1] = target: T1, S.c. DNA polymerase δ catalytic subunit …; test: cryo-EM structure; 8.0 uM PCNA and 6.0 uM T/P DNA mixed in Hepes-KOH pH 7.5, DTT, MgAc, KOAc, potassium glutamate, 0.4 mM ddTTP, then 3.3 uM Pol δ added; PCNA:Pol δ:T/P DNA 1.2:1:0.9; on ice 1 h; 3.2 Å map; conditions: both partners purified
[2] = target: T2, S.c. DNA polymerase δ (Pol3-Pol31-Pol32) harboring the D321S and E323S mutations in the exonuclease domain of … (S. cerevisiae, UniProt P15436 1-1097; P46957 1-487; P47110 1-350, D321S | E323S); test: as above; conditions: both partners purified
T2 construct: Pol3, catalytic subunit of Saccharomyces cerevisiae DNA polymerase δ; Pol31 (B subunit), regulatory subunit of Saccharomyces cerevisiae DNA polymerase δ; Pol32, regulatory subunit of Saccharomyces cerevisiae DNA polymerase δ; also called Pol δ^exo-; Pol δ; copies: + +

[3] = target: the molecule itself; test: as above
[4] = target: B5; test: as above; conditions: both partners purified
[5] = target: Pol delta exo- (Pol3-Pol31-Pol32);PCNA (Saccharomyces cerevisiae;Saccharomyces …, UniProt P15436;P46957;P47110;P15873 1-1097;1-487;1-350;1-258, D321S;E323S|); test: cryo-EM 3.2 A; ddTTP; 4Fe-4S cluster, Zn2+; EMSA: 50 mM Hepes pH 7.5, 5 mM MgCl2, 50 mM NaOAc, 1 mM DTT, 6% glycerol, 90 min at room temperature; 8% native PAGE in 40 mM Tris, 150 mM glycine pH 8.0; conditions: protein: recombinant;recombinant; tags: ;; copies: 1;1;1;3; 25 bp, 5' overhang 13 nt on template

Binder: B1
binding result (Pol31-Pol32 complex): binds

Binder: B2
binding result [1]: binds
binding result [2]: binds
stoichiometry N [3]: 3

Binder: B3
binding result [4]: binds

Binder: B4
binding result [5]: binds

Binder: B5
binding result [1]: binds
